Measured values as given in patent US20250121082A1 (SHANDONG BOAN BIOTECHNOLOGY, published 2025).
Read-outs that look alike come from different tables or passages of the source.

Legend:
Assay in all cases: cell-based or functional assay
[1] = biological target: T1, CD228 on cells stably expressing exogenous CD228 gene (MC38-CD228, A375-CD228, A549-CD228) (UniProt P08582 20-709)
T1 sequence (looked up): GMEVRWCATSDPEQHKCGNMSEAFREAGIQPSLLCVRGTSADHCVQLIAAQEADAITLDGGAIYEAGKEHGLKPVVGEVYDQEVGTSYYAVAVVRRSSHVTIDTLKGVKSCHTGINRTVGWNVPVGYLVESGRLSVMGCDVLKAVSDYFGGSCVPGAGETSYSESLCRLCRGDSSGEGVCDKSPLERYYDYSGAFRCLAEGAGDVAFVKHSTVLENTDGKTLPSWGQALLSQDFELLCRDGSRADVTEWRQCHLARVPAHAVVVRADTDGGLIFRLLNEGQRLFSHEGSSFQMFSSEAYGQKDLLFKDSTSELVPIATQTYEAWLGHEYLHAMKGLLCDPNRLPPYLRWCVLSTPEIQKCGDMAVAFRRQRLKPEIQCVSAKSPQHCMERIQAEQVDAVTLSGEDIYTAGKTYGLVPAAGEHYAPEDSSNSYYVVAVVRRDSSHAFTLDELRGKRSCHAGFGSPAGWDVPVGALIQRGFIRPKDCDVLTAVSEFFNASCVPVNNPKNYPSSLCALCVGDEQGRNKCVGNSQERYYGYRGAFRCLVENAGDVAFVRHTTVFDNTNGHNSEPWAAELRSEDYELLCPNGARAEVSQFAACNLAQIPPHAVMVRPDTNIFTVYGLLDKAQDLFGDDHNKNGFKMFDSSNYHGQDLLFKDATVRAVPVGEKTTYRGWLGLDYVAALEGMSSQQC

[2] = biological target: T2, CD228 protein on human melanoma SK-MEL-5 cells (human, UniProt P08582 20-709)
T2 sequence (looked up): T1 sequence (looked up)

[3] = biological target: T1, CD228 on cells stably expressing …; remark: listed apart in the source

B1: CA149-BNLD11 (antibody, human IgG1, kappa, V domains shown)
VH: EVQLVESGGGVVQPGRSLRLSCAASGFTFSSYAMHWVRQAPGKGLEWVAVISFDGSNKYYTDSVKGRFTISRDNSKNTLYLQMNSLRAEDTAVYYCAREVPYYYGSGPFDYWGQGTLVTVSS
VL: EIVLTQSPATLSVSPGERATLSCRASQSVSSNLAWYQQKPGQAPRHLIDGASSRASGIPDRFSGSGSGTDFTLTISRLEPEDFAVYYCQQYGSSPPFTFGPGTKVDIKR
modifications: BNLD11 linker-drug coupled to the TCEP-reduced antibody; sites not stated; BNLD11 linker-drug (MC-β-Ala-(glucuronide)PAB-MMAE) coupled to the TCEP-reduced antibody, average DAR 4.1; sites not stated
IC50 (ng/mL), inhibition of A375-CD228 cell proliferation [1]: 61.8 ng/mL | IC50 (ng/mL), inhibition of MC38-CD228 cell proliferation [1]: 102 ng/mL | IC50 (ng/mL), inhibition of SK-MEL-5 cell proliferation [2]: 11.5 ng/mL | IC50 (ng/mL), inhibition of A375-CD228 cell proliferation [3]: 13.9 ng/mL | IC50 (ng/mL), inhibition of A549-CD228 cell proliferation [3]: 15.2 ng/mL
